# In article PMC9482650, “Quantitative fragmentomics allow affinity mapping of interactomes” (Nature Communications, 2022):
# T1: HTRA3, P83110
# T1 sequence (P83110 354-453, limits assumed, looked up): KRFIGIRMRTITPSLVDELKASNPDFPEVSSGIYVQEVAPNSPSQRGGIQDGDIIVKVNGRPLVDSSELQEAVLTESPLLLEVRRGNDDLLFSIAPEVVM
# T2: LIN7B, Q9HAP6
# T2 sequence (Q9HAP6 88-185, limits assumed, looked up): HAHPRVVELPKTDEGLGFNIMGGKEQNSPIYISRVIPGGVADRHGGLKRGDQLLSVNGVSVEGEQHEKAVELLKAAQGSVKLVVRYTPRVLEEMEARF
# T3: LIN7C, Q9NUP9
# T3 sequence (Q9NUP9 88-185, limits assumed, looked up): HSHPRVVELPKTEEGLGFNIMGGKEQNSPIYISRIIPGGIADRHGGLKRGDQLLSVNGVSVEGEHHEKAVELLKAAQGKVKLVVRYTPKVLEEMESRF
# T4: APBA2_2, Q99767
# T4 sequence (Q99767 654-744, limits assumed, looked up): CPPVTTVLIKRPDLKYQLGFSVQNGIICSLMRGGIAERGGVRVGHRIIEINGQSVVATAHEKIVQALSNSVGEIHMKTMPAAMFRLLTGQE
# T5: PDZD7_3, Q9H5P4
# T5 sequence (Q9H5P4 857-944, limits assumed, looked up): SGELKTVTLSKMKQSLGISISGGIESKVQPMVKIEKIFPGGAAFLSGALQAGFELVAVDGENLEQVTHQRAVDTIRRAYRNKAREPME
# T6: GRIP1_4, Q9Y3R0
# T6 sequence (Q9Y3R0 467-571, limits assumed, looked up): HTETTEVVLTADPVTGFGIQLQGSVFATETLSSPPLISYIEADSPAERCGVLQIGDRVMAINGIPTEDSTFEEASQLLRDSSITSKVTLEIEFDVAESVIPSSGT
# T7: NHERF3_3, Q5T2W1
# T7 sequence (Q5T2W1 238-333, limits assumed, looked up): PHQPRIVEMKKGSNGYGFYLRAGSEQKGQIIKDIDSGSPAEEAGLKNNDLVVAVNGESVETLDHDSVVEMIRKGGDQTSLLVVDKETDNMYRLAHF
# T8: MPDZ_5, O75970
# T8 sequence (O75970 695-796, limits assumed, looked up): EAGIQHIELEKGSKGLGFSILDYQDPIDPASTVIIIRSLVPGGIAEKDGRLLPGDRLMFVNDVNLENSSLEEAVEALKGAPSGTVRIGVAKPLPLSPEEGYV
# T9: APBA3_1, O96018
# T9 sequence (O96018 389-490, limits assumed, looked up): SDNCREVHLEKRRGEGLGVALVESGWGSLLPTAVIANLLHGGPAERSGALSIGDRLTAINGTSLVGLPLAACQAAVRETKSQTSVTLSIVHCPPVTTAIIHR
# How the values were obtained:
# Test in all cases: holdup assay
# Design in all cases: key: below the threshold = too weak to quantify, mostly under pKd 3.1 to 4
# LDB3, O75112 = target: LDB3, O75112
# LAP2, Q96RT1 = target: LAP2, Q96RT1
# HTRA3, P83110 = target: T1, HTRA3, P83110
# Inadl_5, Q8NI35 = target: Inadl_5, Q8NI35
# FRMPD3, Q5JV73 = target: FRMPD3, Q5JV73
# LIN7B, Q9HAP6 = target: T2, LIN7B, Q9HAP6
# DLG4_2, P78352 = target: DLG4_2, P78352
# ARHGEF12, Q9NZN5-2 = target: ARHGEF12, Q9NZN5-2
# GRIP2_7, Q9C0E4 = target: GRIP2_7, Q9C0E4
# DLG1_1, Q12959 = target: DLG1_1, Q12959
# IL16_4, Q14005 = target: IL16_4, Q14005
# LIN7C, Q9NUP9 = target: T3, LIN7C, Q9NUP9
# DLG2_2, Q15700 = target: DLG2_2, Q15700
# LNX1_3, Q8TBB1 = target: LNX1_3, Q8TBB1
# MAGI2_4, Q86UL8 = target: MAGI2_4, Q86UL8
# AHNAK1, Q09666 = target: AHNAK1, Q09666
# APBA2_2, Q99767 = target: T4, APBA2_2, Q99767
# MAGI2_3, Q86UL8 = target: MAGI2_3, Q86UL8
# PDZD7_3, Q9H5P4 = target: T5, PDZD7_3, Q9H5P4
# PDLIM1, O00151 = target: PDLIM1, O00151
# GRIP1_4, Q9Y3R0 = target: T6, GRIP1_4, Q9Y3R0
# Inadl_10, Q8NI35 = target: Inadl_10, Q8NI35
# NHERF3_3, Q5T2W1 = target: T7, NHERF3_3, Q5T2W1
# IL16_1, Q14005 = target: IL16_1, Q14005
# DLG4_3, P78352 = target: DLG4_3, P78352
# MPDZ_5, O75970 = target: T8, MPDZ_5, O75970
# HTRA1, Q92743 = target: HTRA1, Q92743
# APBA3_1, O96018 = target: T9, APBA3_1, O96018
# PDZRN4_1, Q6ZMN7 = target: PDZRN4_1, Q6ZMN7
# [1] = modified: phospho on S at position -3 from the C-terminal residue
# [2] = plain residues with an end cap or a label only (N-terminal biotin on a linker: ado-ado)
# Chain of DLG4_3, P78352 (P78352 306-403): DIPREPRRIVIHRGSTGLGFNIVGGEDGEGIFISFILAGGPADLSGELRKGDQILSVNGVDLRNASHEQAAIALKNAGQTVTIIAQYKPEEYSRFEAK
# Chain of LAP2, Q96RT1 (Q96RT1 other isoform, or with tags, fused parts or gaps): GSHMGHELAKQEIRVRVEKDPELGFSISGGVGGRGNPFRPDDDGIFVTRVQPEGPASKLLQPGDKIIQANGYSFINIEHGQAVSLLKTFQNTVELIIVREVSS
# Chain of AHNAK1, Q09666 (Q09666 4-100): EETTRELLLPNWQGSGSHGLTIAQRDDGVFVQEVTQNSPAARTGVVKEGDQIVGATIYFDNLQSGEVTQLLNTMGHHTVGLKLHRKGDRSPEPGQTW
# Chain of PDZRN4_1, Q6ZMN7 (Q6ZMN7 213-318): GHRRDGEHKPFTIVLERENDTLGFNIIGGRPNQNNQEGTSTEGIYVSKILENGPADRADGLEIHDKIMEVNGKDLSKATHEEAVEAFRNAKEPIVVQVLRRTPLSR
# Chain of IL16_1, Q14005 (Q14005 210-306): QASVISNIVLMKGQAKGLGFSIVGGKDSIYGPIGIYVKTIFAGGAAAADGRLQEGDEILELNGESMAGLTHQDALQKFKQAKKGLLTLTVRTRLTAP
# Chain of HTRA1, Q92743 (Q92743 360-477): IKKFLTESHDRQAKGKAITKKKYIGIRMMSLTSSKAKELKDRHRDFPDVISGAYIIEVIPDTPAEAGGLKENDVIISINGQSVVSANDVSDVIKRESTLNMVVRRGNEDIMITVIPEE
# Chain of DLG2_2, Q15700 (Q15700 189-283): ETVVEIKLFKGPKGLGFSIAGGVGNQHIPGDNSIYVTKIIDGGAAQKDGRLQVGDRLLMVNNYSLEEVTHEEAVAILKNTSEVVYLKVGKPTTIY
# Chain of LNX1_3, Q8TBB1 (Q8TBB1 500-596): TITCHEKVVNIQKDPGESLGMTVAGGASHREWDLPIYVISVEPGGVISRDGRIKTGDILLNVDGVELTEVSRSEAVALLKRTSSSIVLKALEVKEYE
# Chain of FRMPD3, Q5JV73 (Q5JV73 12-100): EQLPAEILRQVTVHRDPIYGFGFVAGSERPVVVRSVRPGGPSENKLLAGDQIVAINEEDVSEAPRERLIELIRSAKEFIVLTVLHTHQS
# Chain of LDB3, O75112 (O75112 1-94): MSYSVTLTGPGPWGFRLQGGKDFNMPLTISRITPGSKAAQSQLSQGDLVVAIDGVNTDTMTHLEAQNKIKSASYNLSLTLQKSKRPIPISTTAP
# Chain of MAGI2_3, Q86UL8 (Q86UL8 600-682): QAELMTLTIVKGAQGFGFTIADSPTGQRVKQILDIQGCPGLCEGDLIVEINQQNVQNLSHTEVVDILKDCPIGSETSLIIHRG
# Chain of DLG4_2, P78352 (P78352 155-259): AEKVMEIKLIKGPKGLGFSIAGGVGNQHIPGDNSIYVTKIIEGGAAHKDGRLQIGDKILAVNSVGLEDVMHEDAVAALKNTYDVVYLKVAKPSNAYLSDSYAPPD
# Chain of PDLIM1, O00151 (O00151 1-87): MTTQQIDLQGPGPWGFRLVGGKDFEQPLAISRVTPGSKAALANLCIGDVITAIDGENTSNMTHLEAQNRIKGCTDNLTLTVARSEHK
# Chain of Inadl_5, Q8NI35 (Q8NI35 673-780): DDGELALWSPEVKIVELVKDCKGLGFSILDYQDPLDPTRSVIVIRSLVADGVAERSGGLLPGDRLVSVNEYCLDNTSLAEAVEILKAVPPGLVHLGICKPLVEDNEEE
# Chain of IL16_4, Q14005 (Q14005 1229-1329): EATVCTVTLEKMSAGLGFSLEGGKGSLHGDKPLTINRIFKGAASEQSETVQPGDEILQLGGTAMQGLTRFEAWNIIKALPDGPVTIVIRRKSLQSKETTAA
# Chain of GRIP2_7, Q9C0E4 (Q9C0E4 934-1023): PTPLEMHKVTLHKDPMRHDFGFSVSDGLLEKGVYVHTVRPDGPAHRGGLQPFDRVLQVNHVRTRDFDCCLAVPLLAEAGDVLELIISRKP
# Chain of Inadl_10, Q8NI35 (Q8NI35 1673-1763): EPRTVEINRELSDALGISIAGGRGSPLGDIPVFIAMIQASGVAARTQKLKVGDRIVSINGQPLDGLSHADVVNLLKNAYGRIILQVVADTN
# Chain of MAGI2_4, Q86UL8 (Q86UL8 772-865): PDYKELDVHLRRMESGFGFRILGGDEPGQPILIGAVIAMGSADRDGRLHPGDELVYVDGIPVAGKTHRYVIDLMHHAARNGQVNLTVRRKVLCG
# Chain of ARHGEF12, Q9NZN5-2 (Q9NZN5 other isoform, or with tags, fused parts or gaps): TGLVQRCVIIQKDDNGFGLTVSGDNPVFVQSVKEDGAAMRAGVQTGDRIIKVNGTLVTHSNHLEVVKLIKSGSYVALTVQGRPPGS
binder,measurement,setting,value
"RRVRKLPSTTL [RPS6KA1_-3P, Q15418]",pKd,"LDB3, O75112; [1]",below the threshold
same,pKd,"LAP2, Q96RT1; [1]",below the threshold
same,pKd,"HTRA3, P83110; [1]",below the threshold
same,pKd,"Inadl_5, Q8NI35; [1]",below the threshold
same,pKd,"FRMPD3, Q5JV73; [1]",below the threshold
same,pKd,"LIN7B, Q9HAP6; [1]",below the threshold
same,pKd,"DLG4_2, P78352; [1]",below the threshold
same,pKd,"ARHGEF12, Q9NZN5-2; [1]",3.79
same,pKd,"GRIP2_7, Q9C0E4; [1]",below the threshold
same,pKd,"DLG1_1, Q12959; [1]",3.69
same,pKd,"IL16_4, Q14005; [1]",below the threshold
same,pKd,"LIN7C, Q9NUP9; [1]",below the threshold
same,pKd,"DLG2_2, Q15700; [1]",below the threshold
same,pKd,"LNX1_3, Q8TBB1; [1]",below the threshold
same,pKd,"MAGI2_4, Q86UL8; [1]",below the threshold
same,pKd,"AHNAK1, Q09666; [1]",below the threshold
same,pKd,"APBA2_2, Q99767; [1]",below the threshold
same,pKd,"MAGI2_3, Q86UL8; [1]",below the threshold
same,pKd,"PDZD7_3, Q9H5P4; [1]",3.72
same,pKd,"PDLIM1, O00151; [1]",below the threshold
same,pKd,"GRIP1_4, Q9Y3R0; [1]",below the threshold
same,pKd,"Inadl_10, Q8NI35; [1]",below the threshold
same,pKd,"NHERF3_3, Q5T2W1; [1]",below the threshold
same,pKd,"IL16_1, Q14005; [1]",below the threshold
same,pKd,"DLG4_3, P78352; [1]",below the threshold
same,pKd,"MPDZ_5, O75970; [1]",below the threshold
same,pKd,"HTRA1, Q92743; [1]",below the threshold
same,pKd,"APBA3_1, O96018; [1]",below the threshold
same,pKd,"PDZRN4_1, Q6ZMN7; [1]",3.98
"FEEEAEEEVA [TUBB4B, P68371]",pKd,"LDB3, O75112; [2]",below the threshold
same,pKd,"LAP2, Q96RT1; [2]",below the threshold
same,pKd,"HTRA3, P83110; [2]",below the threshold
same,pKd,"Inadl_5, Q8NI35; [2]",below the threshold
same,pKd,"FRMPD3, Q5JV73; [2]",below the threshold
same,pKd,"LIN7B, Q9HAP6; [2]",3.58
same,pKd,"DLG4_2, P78352; [2]",below the threshold
same,pKd,"ARHGEF12, Q9NZN5-2; [2]",below the threshold
same,pKd,"GRIP2_7, Q9C0E4; [2]",below the threshold
same,pKd,"DLG1_1, Q12959; [2]",below the threshold
same,pKd,"IL16_4, Q14005; [2]",below the threshold
same,pKd,"LIN7C, Q9NUP9; [2]",3.76
same,pKd,"DLG2_2, Q15700; [2]",below the threshold
same,pKd,"LNX1_3, Q8TBB1; [2]",below the threshold
same,pKd,"MAGI2_4, Q86UL8; [2]",below the threshold
same,pKd,"AHNAK1, Q09666; [2]",below the threshold
same,pKd,"APBA2_2, Q99767; [2]",below the threshold
same,pKd,"MAGI2_3, Q86UL8; [2]",below the threshold
same,pKd,"PDZD7_3, Q9H5P4; [2]",below the threshold
same,pKd,"PDLIM1, O00151; [2]",below the threshold
same,pKd,"GRIP1_4, Q9Y3R0; [2]",below the threshold
same,pKd,"Inadl_10, Q8NI35; [2]",below the threshold
same,pKd,"NHERF3_3, Q5T2W1; [2]",below the threshold
same,pKd,"IL16_1, Q14005; [2]",below the threshold
same,pKd,"DLG4_3, P78352; [2]",below the threshold
same,pKd,"MPDZ_5, O75970; [2]",below the threshold
same,pKd,"HTRA1, Q92743; [2]",3.58
same,pKd,"APBA3_1, O96018; [2]",below the threshold
same,pKd,"PDZRN4_1, Q6ZMN7; [2]",below the threshold
"VISERNSTTV [C3AR1, Q16581]",pKd,"LDB3, O75112; [2]",below the threshold
same,pKd,"LAP2, Q96RT1; [2]",below the threshold
same,pKd,"HTRA3, P83110; [2]",below the threshold
same,pKd,"Inadl_5, Q8NI35; [2]",3.65
same,pKd,"FRMPD3, Q5JV73; [2]",below the threshold
same,pKd,"LIN7B, Q9HAP6; [2]",below the threshold
same,pKd,"DLG4_2, P78352; [2]",4.65
same,pKd,"ARHGEF12, Q9NZN5-2; [2]",4.33
same,pKd,"GRIP2_7, Q9C0E4; [2]",below the threshold
same,pKd,"DLG1_1, Q12959; [2]",4.44
same,pKd,"IL16_4, Q14005; [2]",below the threshold
same,pKd,"LIN7C, Q9NUP9; [2]",below the threshold
same,pKd,"DLG2_2, Q15700; [2]",4.49
same,pKd,"LNX1_3, Q8TBB1; [2]",below the threshold
same,pKd,"MAGI2_4, Q86UL8; [2]",4.44
same,pKd,"AHNAK1, Q09666; [2]",below the threshold
same,pKd,"APBA2_2, Q99767; [2]",below the threshold
same,pKd,"MAGI2_3, Q86UL8; [2]",below the threshold
same,pKd,"PDZD7_3, Q9H5P4; [2]",4.41
same,pKd,"PDLIM1, O00151; [2]",below the threshold
same,pKd,"GRIP1_4, Q9Y3R0; [2]",below the threshold
same,pKd,"Inadl_10, Q8NI35; [2]",below the threshold
same,pKd,"NHERF3_3, Q5T2W1; [2]",below the threshold
same,pKd,"IL16_1, Q14005; [2]",below the threshold
same,pKd,"DLG4_3, P78352; [2]",3.54
same,pKd,"MPDZ_5, O75970; [2]",below the threshold
same,pKd,"HTRA1, Q92743; [2]",4.2
same,pKd,"APBA3_1, O96018; [2]",below the threshold
same,pKd,"PDZRN4_1, Q6ZMN7; [2]",3.63
